Measured values as given in patent US20090221029.
Like-named read-outs stand apart in the source and are kept apart here.

Columns and labels:
[1] = tested on: T1, Pyrococcus furiosus PCNA
T1 sequence: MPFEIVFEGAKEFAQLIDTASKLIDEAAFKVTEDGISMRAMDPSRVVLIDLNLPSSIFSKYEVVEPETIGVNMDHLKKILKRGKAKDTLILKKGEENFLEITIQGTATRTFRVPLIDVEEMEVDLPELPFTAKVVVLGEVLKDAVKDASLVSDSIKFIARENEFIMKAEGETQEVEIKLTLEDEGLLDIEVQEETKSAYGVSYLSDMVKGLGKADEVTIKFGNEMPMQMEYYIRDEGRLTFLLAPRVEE

[2] = biological target: T2, Pyrococcus furiosus PCNA
T2 chain: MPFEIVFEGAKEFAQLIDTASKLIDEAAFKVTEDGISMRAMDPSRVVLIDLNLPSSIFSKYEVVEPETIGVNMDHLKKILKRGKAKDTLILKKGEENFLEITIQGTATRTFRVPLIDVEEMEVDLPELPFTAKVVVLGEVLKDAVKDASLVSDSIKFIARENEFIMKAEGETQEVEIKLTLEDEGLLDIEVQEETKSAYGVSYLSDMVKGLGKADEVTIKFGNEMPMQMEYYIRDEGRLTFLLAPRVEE

Molecule: cloned Pfu DNA polymerase (Pyrococcus furiosus pol I)
- dNTP incorporation into primed M13 DNA [1]: PCNA was shown to stimulate dNTP incorporation by both Pfu (pol I) and P. furiosus pol II DNA polymerases

B1: P. furiosus pol II DNA polymerase (recombinant CBP-DP1/DP2) (protein)
chain 1: MDEFVKSLLKANYLITPSAYYLLREYYEKGEFSIVELVKFARSRESYIITDALATEFLKVKGLEPILPVETKGGFVSTGESQKEQSYEESFGTKEEISQEIKEGESFISTGSEPLEEELNSIGIEEIGANEELVSNGNDNGGEAIVFDKYGYPMVYAPEEIEVEEKEYSKYEDLTIPMNPDFNYVEIKEDYDVVFDVRNVKLKPPKVKNGNGKEGEIIVEAYASLFRSRLKKLRKILRENPELDNVVDIGKLKYVKEDETVTIIGLVNSKREVNKGLIFEIEDLTGKVKVFLPKDSEDYREAFKVLPDAVVAFKGVYSKRGILYANKFYLPDVPLYRRQKPPLEEKVYAILISDIHVGSKEFCENAFIKFLEWLNGNVETKEEEEIVSRVKYLIIAGDVVDGVGVYPGQYADLTIPDIFDQYEALANLLSHVPKHITMFIAPGNHDAARQAIPQPEFYKEYAKPIYKLKNAVIISNPAVIRLHGRDFLIAHGRGIEDVVGSVPGLTHHKPGLPMVELLKMRHVAPMFGGKVPIAPDPEDLLVIEEVPDVVHMGHVHVYDAVVYRGVQLVNSATWQAQTEFQKMVNIVPTPAKVPVVDIDTAKVVKVLDFSGWC
chain 2: MELPKEIEEYFEMLQREIDKAYEIAKKARSQGKDPSTDVEIPQATDMAGRVESLVGPPGVAQRIRELLKEYDKEIVALKIVDEIIEGKFGDFGSKEKYAEQAVRTALAILTEGIVSAPLEGIADVKIKRNTWADNSEYLALYYAGPIRSSGGTAQALSVLVGDYVRRKLGLDRFKPSGKHIERMVEEVDLYHRAVSRLQYHPSPDEVRLAMRNIPIEITGEATDDVEVSHRDVEGVETNQLRGGAILVLAEGVLQKAKKLVKYIDKMGIDGWEWLKEFVEAKEKGEEIEESESKAEESKVETRVEVEKGFYYKLYEKFRAEIAPSEKYAKEIIGGRPLFAGPSENGGFRLRYGRSRVSGFATWSINPATMVLVDEFLAIGTQMKTERPGKGAVVTPATTAEGPIVKLKDGSVVRVDDYNLALKIRDEVEEILYLGDAIIAFGDFVENNQTLLPANYVEEWWIQEFVKAVNEAYEVELRPFEENPRESVEEAAEYLEVDPEFLAKMLYDPLRVKPPVELAIHFSEILEIPLHPYYTLYWNTVNPKDVERLWGVLKDKATIEWGTFRGIKFAKKIEISLDDLGSLKRTLELLGLPHTVREGIVVVDYPWSAALLTPLGNLEWEFKAKPFYTVIDIINENNQIKLRDRGISWIGARMGRPEKAKERKMKPPVQVLFPIGLAGGSSRDIKKAAEEGKIAEVEIAFFKCPKCGHVGPETLCPECGIRKELIWTCPKCGAEYTNSQAEGYSYSCPKCNVKLKPFTKRKIKPSELLNRAMENVKVYGVDKLKGVMGMTSGWKIAEPLEKGLLRAKNEVYVFKDGTIRFDATDAPITHFRPREIGVSVEKLRELGYTHDFEGKPLVSEDQIVELKPQDVILSKEAGKYLLRVARFVDDLLEKFYGLPRFYNAEKMEDLIGHLVIGLAPHTSAGIVGRIIGFVDALVGYAHPYFHAAKRRNCDGDEDSVMLLLDALLNFSRYYLPEKRGGKMDAPLVITTRLDPREVDSEVHNMDVVRYYPLEFYEATYELKSPKELVGVIERVEDRLGKPEMYYGIKFTHDTDDIALGPKMSLYKQLGDMEEKVKRQLTLAERIRAVDQHYVAETILNSHLIPDLRGNLRSFTRQEFRCVKCNTKYRRPPLDGKCPVCGGKIVLTVSKGAIEKYLGTAKMLVANYNVKPYTRQRICLTEKDIDSLFEYLFPEAQLTLIVDPNDICMKMIKERTGETVQGGLLENFNSSGNNGKKIEKKEKKAKEKPKKKKVISLDDFFSKR
- dNTP incorporation into primed M13 DNA [2]: PCNA was shown to stimulate dNTP incorporation by both Pfu (pol I) and P. furiosus pol II DNA polymerases
